What was measured:
[1] = target: full-length spike B.1.617.2 (SARS-CoV-2, UniProt P0DTC2 13-1273); test: cell-based or functional assay
[2] = target: spike of variant B.1.1.345 on pseudotyped lentiviral particles; test: cell-based or functional assay

B1: A19-46.1 (antibody, V domains shown)
VH: QVQLVESGGGVVQPGRSLRLSCAASGFTLSSYGMHWVRQAPGKGLEWVAVISYDGSNKYYVDSVKGRFTISRDNSKNTLYLQMNSLRAEDTAVYYCARGWAYWELLPDYYYGMDVWGQGTTVTVSS
VL: QTVVTQEPSFSVSPGGTVTLTCGLSSGSVSTAYFPSWYQQTPGQAPRTLIYGTNTRSSGVPDRFSGSILGNKAALTITGAQADDESDYYCVLYMGRGIVVFGGGTKLTVL
For B1, which “neutralization IC50” value [1] is on record?
The value was greater than 10 µg/mL.

And the “pseudotyped virus neutralization IC50” value [2]?
The value was 0.095 µg/mL.
